Source: patent publication US20230355813A1, “Theranostic Silicon-Fluoride Heteroaromatic Systems and Methods Thereof” (Fuzionaire Diagnostics, Inc., priority 2022, published 2023)

Legend:
FIG. 26 = test: FIG. 26
From the text: Table printed on a drawing sheet, FIG. 26
The patent's description of the figure: FIG. 26 illustrates HSA binding assay results of HetSiFA compounds in accordance with an embodiment of the invention.
FIG. 26 illustrates human serum albumin (HSA) binding assay results of HetSiFA compounds in accordance with an embodiment. A standard curve can be first established using reference compounds (See, e.g., Valko, K. et al., J. Pharm. Sci. 2003, 92 (11), 2236-2248; Wurzer, A. J. et al., PSMA binding dual mode radiotracer and therapeutic. 2020, WO2020157177A1; the disclosures of which are herein incorporated by reference.) The HSA binding assay results include four HetSiFA theranostic compounds, FTX-164, FTX-165, FTX-168, and FTX-181 (structures shown in FIG. 26), and two therapeutics Lutathera and Lu-NeoB. […] Test condition of the HSA binding assay includes: Column: Chiralpak HSA (100×2.1 mm, 5 μm, Cat. No. HSA5LM-C0004), flow rate: 0.3 mL/min. Mobile phase: A—NH40Ac buffer (50 mM, pH=7), freshly prepared each day; B—isopropanol (HPLC grade); 0-3 min: isocratic 100% A, 0% B; 3-40 min: gradient to 80% A, 20% B; 40-60 min: isocratic 80% A, 20% B. Samples: 9 reference compounds, concentration 0.5 mg/mL in i-PrOH/NH4OAc (50 mM) pH=7, 50:50. […]
First reader's note: HSA % is human serum albumin binding; the structures of the compounds are drawn beside the table on the same sheet.

[1] = stability in solution / on storage (observations); assay type: physicochemical; conditions: prolonged storage
[2] = pH 10
From the text: Brief descriptions of each property and the characterization of each property are stated below. • a) Hydrophilicity. Hydrophilicity relates to the strength of being dissolved in or absorbed in aqueous solutions. It denotes a preference for liquids, solutions, or surfaces with a high dipole moment, like water. Lipophilicity denotes a preference for liquids, solutions, or surfaces with a low dipole moment, such as lipid solutions. The more polar the HetSiFA, the less masking of the lipophilicity may be needed in the radiopharmaceutical via introducing cumbersome and lengthy linkers. The hydrophilicity of HetSiFAs is assessed by calculating and/or measuring the octanol/water partition coefficient log P. Log D measures the lipophilicity of ionizable compounds, where the partition is a function of the pH. The reversed-phase HPLC retention times tR can be used to qualitatively compare the polarity of HetSiFAs. • b) Hydrolytic stability. […] At different time points, the substrate is quantified by HPLC UV monitoring. […] The hydrolysis is monitored by HPLC (˜7 timepoints). […] In addition, the stability of compounds can be assessed in rat and human plasma and in microsomes. • c) Radiolabeling. […] The radiolabeling properties of synthesized HetSiFAs can be assessed using low amounts of radioactivity. […]

[3] = ex vivo biodistribution in healthy mice; conditions: for bone uptake: ex vivo biodistribution, 3 healthy Balb/c female mice, indicates Si-18F bond stability in vivo

| Molecule | hydrolytic stability compared to phenyl-SiFA [2] | bone uptake [3] | further results |
| --- | --- | --- | --- |
| ^18F-Pyridine-HetSiFA-Lu-DOTAGA-TATE [FTX-164] |  |  | HSA % (FIG. 26): 97.78% |
| CC(C)(C)OC(=O)NCCOCCn1nc(NCC(=O)O)cc1[Si](F)(C(C)(C)C)C(C)(C)C [PPI-24068, (1-(2-(2-((tert-butoxycarbonyl)amino)ethoxy)ethyl)-5-(di-tert-butylfluorosilyl)-1H-pyrazol-3-yl)glycine] |  |  | stability on storage and in basic medium [1]: some instability |
| COc1ncccc1[Si](F)(C(C)(C)C)C(C)(C)C [5-(Di-tert-butylfluorosilyl)-6-methoxypyridine] | higher hydrolytic stability than phenyl-SiFA |  |  |
| Lu-DOTAGA-^18F-Pyrazole-HetSiFA-PEG12-TATE [^18F-FTX-181] |  | less bone uptake | accumulation in the liver ([3]; healthy Balb/c female mice): low; washout from non-targeted organs ([3]; healthy Balb/c female mice): washes out from non-targeted organs except for the gallbladder |
| COc1ccncc1[Si](F)(C(C)(C)C)C(C)(C)C [3-(Di-tert-butylfluorosilyl)-4-methoxypyridine] | slightly lower hydrolytic stability than phenyl-SiFA |  |  |
| ^18F-Pyrazole-HetSiFA-Lu-DOTAGA-TATE [^18F-FTX-165] |  | Little bone uptake |  |
